The text below walks through data of PMC2793008.

The experiment deals with integrin alpha2beta1 (human (endogenous in cord blood derived megakaryocytes)) (UniProt P17301).
Chain of UniProt P17301 (P17301 30-1181, chain 1 of 2): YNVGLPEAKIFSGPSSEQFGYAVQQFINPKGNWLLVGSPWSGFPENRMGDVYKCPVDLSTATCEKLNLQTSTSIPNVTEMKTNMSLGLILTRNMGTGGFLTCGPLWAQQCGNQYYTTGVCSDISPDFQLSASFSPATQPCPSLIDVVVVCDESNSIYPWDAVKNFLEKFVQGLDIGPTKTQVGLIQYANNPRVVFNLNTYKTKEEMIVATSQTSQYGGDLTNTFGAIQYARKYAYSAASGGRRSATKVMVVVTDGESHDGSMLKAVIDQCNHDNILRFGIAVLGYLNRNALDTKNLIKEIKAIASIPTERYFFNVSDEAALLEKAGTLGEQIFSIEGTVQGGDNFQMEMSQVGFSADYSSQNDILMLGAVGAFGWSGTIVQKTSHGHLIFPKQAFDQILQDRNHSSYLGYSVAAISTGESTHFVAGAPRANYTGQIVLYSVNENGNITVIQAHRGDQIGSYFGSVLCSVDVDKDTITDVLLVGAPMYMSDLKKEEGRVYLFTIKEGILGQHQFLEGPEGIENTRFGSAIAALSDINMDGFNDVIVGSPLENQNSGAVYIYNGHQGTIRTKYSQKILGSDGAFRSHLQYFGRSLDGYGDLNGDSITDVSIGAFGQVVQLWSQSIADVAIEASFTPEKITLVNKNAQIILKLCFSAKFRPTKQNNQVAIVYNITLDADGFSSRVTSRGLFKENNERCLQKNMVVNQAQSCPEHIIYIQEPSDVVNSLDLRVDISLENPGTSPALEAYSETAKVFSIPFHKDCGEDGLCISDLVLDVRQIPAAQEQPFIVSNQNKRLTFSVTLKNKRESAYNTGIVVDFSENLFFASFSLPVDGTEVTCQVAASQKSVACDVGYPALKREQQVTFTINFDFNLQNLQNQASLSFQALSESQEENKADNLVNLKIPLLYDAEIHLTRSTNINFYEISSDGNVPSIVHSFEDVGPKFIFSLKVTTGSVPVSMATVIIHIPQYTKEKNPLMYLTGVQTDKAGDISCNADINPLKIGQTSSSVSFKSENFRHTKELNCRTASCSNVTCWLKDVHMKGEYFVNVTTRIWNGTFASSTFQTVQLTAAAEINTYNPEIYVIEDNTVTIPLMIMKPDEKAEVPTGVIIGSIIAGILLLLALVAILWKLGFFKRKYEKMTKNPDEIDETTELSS
Chain of UniProt P17301 (P05556 21-798, chain 2 of 2, further chain): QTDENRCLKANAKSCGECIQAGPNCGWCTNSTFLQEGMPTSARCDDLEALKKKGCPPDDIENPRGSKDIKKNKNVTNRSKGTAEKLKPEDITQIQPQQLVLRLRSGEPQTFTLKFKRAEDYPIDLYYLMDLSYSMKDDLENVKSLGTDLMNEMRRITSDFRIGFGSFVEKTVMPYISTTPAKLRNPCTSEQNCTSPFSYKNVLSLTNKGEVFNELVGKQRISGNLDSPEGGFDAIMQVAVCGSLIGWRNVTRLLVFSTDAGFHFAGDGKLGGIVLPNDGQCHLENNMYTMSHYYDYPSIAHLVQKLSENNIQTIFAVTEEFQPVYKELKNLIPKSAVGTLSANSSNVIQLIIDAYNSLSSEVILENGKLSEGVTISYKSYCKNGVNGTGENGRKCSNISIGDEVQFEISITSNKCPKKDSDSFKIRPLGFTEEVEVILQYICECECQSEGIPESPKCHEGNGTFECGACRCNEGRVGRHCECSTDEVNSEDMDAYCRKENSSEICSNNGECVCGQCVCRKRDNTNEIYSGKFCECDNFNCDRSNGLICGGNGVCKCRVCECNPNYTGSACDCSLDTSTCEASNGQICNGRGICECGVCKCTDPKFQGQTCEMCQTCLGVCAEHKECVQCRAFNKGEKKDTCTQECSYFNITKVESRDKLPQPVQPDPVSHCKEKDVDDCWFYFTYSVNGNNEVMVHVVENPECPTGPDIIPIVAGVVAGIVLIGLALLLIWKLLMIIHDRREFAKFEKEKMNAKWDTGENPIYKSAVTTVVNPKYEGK

Regarding “type I collagen (from UniProt P02452 162-1218; P08123 80-1119) (complex)”, the adhesion of mature megakaryocytes to hOSTs (day 18) after pre-incubation with 30 µg/mL anti-integrin alpha2 monoclonal antibody P1E6, against unrelated IgG came out at 30%.
